Measured values from article PMC11009304.

Experiments:
[1] = target: human parainfluenza virus type 3 (hPIV3) phosphoprotein (P) (human parainfluenza virus type 3 (hPIV3)) (UniProt P06162); test: cryo-EM structure
[2] = target: hPIV3 L–P polymerase complex (L–P4) (human parainfluenza virus type 3 (hPIV3)) (UniProt P12577); test: SEC-MALS; purified L–P complex on an XBridge Protein BEH SEC column (200 Å) with a DAWN MALS detector, 0.5 ml/min, buffer B; bovine serum albumin as control
[3] = target: hPIV3 L–P polymerase complex (L–P4) (human parainfluenza virus type 3 (hPIV3)) (UniProt P12577); test: SEC; analytical SEC of the purified L–P complex, Superdex 200 Increase 5/150 GL, buffer B (20 mM Tris-HCl pH 7.5, 300 mM NaCl, 1% glycerol, 6 mM MgSO4, 1 mM DTT), calibrated with standard markers

Substance	stoichiometry N [1]	stoichiometry N [2]	stoichiometry N [3]
human parainfluenza virus type 3 (hPIV3) phosphoprotein (P) (from UniProt P06162 1-604) (natural protein)	4	–	–
hPIV3 L–P polymerase complex (L–P4) (from UniProt P12577;P06162)	–	2	2
